# According to article PMC11242883:
# Key:
# [1] = molecular target: eel follicle-stimulating hormone receptor (eel FSHR) on CHO-K1 cells (eel)
# [2] = molecular target: eel follicle-stimulating hormone receptor (eel FSHR) on HEK293 cells (eel)
Substance,"cAMP production (HTRF) in CHO-K1 cells transiently expressing eel FSHR, 30 min, dose-response: EC50 [1]","pERK1/2 HTRF ratio in HEK293 cells transiently expressing eel FSHR, time course 0-30 min after agonist; peak at 5 min [2]"
recombinant single-chain eel follicle-stimulating hormone mutant with the eCG β-subunit CTP linker (amino acids 115–149) between the β-subunit and the α-subunit (eel FSH-M) (from UniProt P08751 135-169) (ligand),0.129 µg/mL,7090
"recombinant single-chain (tethered) eel follicle-stimulating hormone, wild type (eel FSH β/α-wt) (ligand)",0.16 µg/mL,7460
